# Data taken from US20130209439A1, “INHIBITORS OF PDE4 BINDING TO HSP20” (THE UNIVERSITY COURT OF THE UNIVERSITY OF GLASGOW, priority 2010, published 2013).
# T1: His-HSP20 (purified recombinant His-tagged HSP20) (human, UniProt O14558 1-160)
# T1 construct: Expressed in E. coli BL21 from pET28c and purified on nickel; also called HSP20-His; HSP20-6His; not shown: His tag from the pET28c vector
# T1 sequence: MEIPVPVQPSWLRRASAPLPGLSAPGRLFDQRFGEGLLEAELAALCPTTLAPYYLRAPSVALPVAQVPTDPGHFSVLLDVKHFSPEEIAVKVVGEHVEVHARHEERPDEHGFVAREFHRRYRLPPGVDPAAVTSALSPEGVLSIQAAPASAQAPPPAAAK
# System: pS16-Hsp20 in SH-SY5Y cells
# Assay: Cell based Hsp20-PDE4D disruptor assay, nucleofected SH-SY5Y cells, pS16-Hsp20 Western blot
# Set-up: species or system human
# Conditions: SH-SY5Y cells nucleofected with 500 μM peptide, 2 hours
# Description: FIG. 9. Disrupter induced HSP20 phosphorylation SH-SY5Y cells nucleofected with 500 μM of each peptide and incubated for 2 hours prior to harvesting. Each assay was blotted for Hsp20, pS16-Hsp20 and tubulin. Changes in levels of phospho-Hsp20 relative to DMSO only controls were quantified through densitometry analysis and each assay was normalised to α-tubulin loading control. The results are the average of three separate experiments and error bars represent SEM. *=p<0.05, **=p<0.01 compared to DMSO only controls (Student-T-test)
# SDS-PAGE analysis was done on NuPage® pre-cast gels X-cell apparatus (Invitrogen, Paisley) using MES-SDS running buffer, Samples were reduced in Laemmli 2× loading buffer (4% SOS) with 5% β-mercaptoethanol. For Western Blotting (WB) analysis, samples were transferred using NuPage® X-cell blotting module onto a nitrocellulose membrane. Membranes were blocked using 5% Milk in 1×TBST (w/v). Antibodies were incubated in 1% milk in 1×TBST (w/v) for either 1 hour at room temperature or overnight at 4° C. Signals were detected using enhanced chemiluminescence system (Pierce) and developed on an X-omat film developer. Subsequent densitometry analysis was carried out using Quantity One (Bio-Rad).
# SH-SY5Y cells (ATCC-CRL-2266) were grown in Dulbecco's Modified Eagle's Medium (DMEM) and F12-Ham's at a 1:1 ratio, media was supplemented with 10% (v/v) fetal bovine serum (FBS), 1% (v/v) L-Glutamine, 1% (v/v) Minimum Essential Medium—With Non-essential Amino Acids (MEM-NAA) and 1% (v/v) Pen/strep. Cells were cultured in a humidified, 5% (v/v) CO2, 37° C. incubator.
# SH-SY5Y cells were nucleofected using Cell Line Nucleofector® Kit-V in accordance with manufacturers protocol (Amaxa Biosystems). Setting A-23 on the Nucleofector I device was used which increases cell viability. For each assay, 500 μM of disrupter peptide was incubated with 100 μl of nucleofection solution containing approximately 2×10^6 cells. After nucleofection cells were re-suspended in 500 μl of culture media before being transferred to a 6 well plate with a final volume of 2 ml per well. Cells were incubated for 2 hours prior to harvesting with […] containing protease and phosphatase inhibitors (Roche).
# As the cell permeability of the peptides is unknown we used an electroporation technique to introduce the peptides into the SH-SY5Y cells. The Amaxa cell-line specific Nucleofector Kit V (Lonza) was used to transfect the peptides into the cells. […] Each assay used a final concentration of 500 μM of peptide in nucleofector solution containing approximately 2×10^6 SH-SY5Y cells. As peptides were dissolved in 100% DMSO, control transfections with DMSO only were used to compare any changes in phospho-Hsp20 levels. After each transfection the solution was reconstituted in culture media and incubated for 2 hours to allow for cell adhesion prior to the harvesting of viable cells.
row,Molecule,pS16-Hsp20 levels relative to DMSO only controls
1,Ac-FKLLQ-NH2 [Peptide 9],indistinguishable from DMSO only controls
2,Ac-FQNLTK-NH2 [Peptide 6],significant increase in pS16-Hsp20 levels
3,Ac-GFALL-NH2 [Peptide 16],average value similar to the DMSO only controls
4,Ac-GFKLL-NH2 [Peptide 11],indistinguishable from DMSO only controls
5,Ac-GFRLL-NH2 [Peptide 12],induced an average increase when compared with DMSO only controls
6,Ac-KFKLL-NH2 [Peptide 13],induced an average increase when compared with DMSO only controls
7,Ac-LTK-NH2 (Ac-Leu-Thr-Lys-NH2) [Peptide 7],significant increase in pS16-Hsp20 levels
8,Ac-YQNLTK-NH2 [Peptide 3],no effect on phosphorylation levels

# Target: T1, His-HSP20 (purified recombinant …)
# Assay: PDE4D5 peptide array overlaid with HSP20-6His
# Conditions: not given
# Text: PDE4 isoform localisation invariably depends on protein-protein interactions, with PDE4s shown to associate with a diverse group of interacting partners such as RACK1^{32, 36}, βarrestin³⁶, β₁-Ar³⁷, DISC1³⁸, the p75 neurotrophin receptor³⁹ and the cardiac IKs potassium channel⁴⁰. […] Dark spots represent positive areas of HSP20 interaction whereas clear spots are negative for the association (FIG. 4A).
row,Molecule,binding result
1,FKLLQEENCDIFQNLTKKQRQSLRK (peptides 93 to 96 span Y461-K500; SPOT-immobilised; also called spot 96) [25mer peptide 96 of the PDE4D5 peptide array],binds
2,HLAVGFKLLQEENCDIFQNLTKKQR (peptides 93 to 96 span Y461-K500; SPOT-immobilised; also called spot 95) [25mer peptide 95 of the PDE4D5 peptide array],binds
3,YNDSSVLENHHLAVGFKLLQEENCD (peptides 93 to 96 span Y461-K500; SPOT-immobilised; also called spot 93) [25mer peptide 93 of the PDE4D5 peptide array],binds
4,VLENHHLAVGFKLLQEENCDIFQNL (peptides 93 to 96 span Y461-K500; SPOT-immobilised; also called spot 94) [25mer peptide 94 of the PDE4D5 peptide array],binds

# System: Phospho-Ser16 HSP20 in neonatal cardiac myocytes
# Assay: Ser16 phosphorylation of endogenous HSP20 in neonatal cardiac myocytes (Western blot)
# Type: cell-based, rat
# Conditions: cardiomyocytes, stimulated with isoproterenol alone or with PKA inhibitor pre-treatment; data not shown
# Description: FIG. 2. The phosphorylation of HSP20 at Ser16 is modulated by PDE4 activity in cardiac myocytes. A, Neonatal cardiac myocytes were treated with isoprenaline for indicated times with or without pre-treatment with the PDE4-specific inhibitor, rolipram. Cellular lysates were blotted for HSP20 and Phospho-Ser16 HSP20. B, Quantifications of data from FIG. 2A (n=3). * Denotes significance at a level p<0.05 over iso treatment.
# (§1) HEK293B2 cells are a stable cell line overexpressing the GFP-tagged β2AR were cultured as previously described^48. HEK293B2 cells were transiently transfected with wild type HSP20 or a phosphorylation defective HSP20 (S16A) or a phosphorylation mimic HSP20 (S16D). Neonatal cardiac myocytes were prepared and cultured as previously described^30. Cell lysis, immunopurification and western blotting was done as described before by us in some detail^48. Briefly, HEK 293 cells were transiently transfected with wild-type HSP20 by using Polyfect Transfection Reagent (Qiagen). Transfected HEK 293 cells were treated with 10 μM bs906 or 10 μM control peptide for 0, 15, 30, 60 and 120 min. Control and treated transfected HEK 293 cells were then washed thrice with ice cold PBS (phosphate buffered saline) before cellular lysates were prepared. Cellular lysates were prepared in lysis buffer containing 25 mM Hepes, pH 7.5, 2.5 mM EDTA, 50 mM NaCl, 50 mM NaF, […], 10% (v/v) glycerol, 1% (v/v) Triton X-100 and Complete™ EDTA-free protease inhibitor cocktail tablets (Roche). Protein concentration of lysates were determined using the Bradford assay and all samples were equalised for protein concentration. Proteins were separated by SOS/PAGE (4-12% Bis-Tris gels) and transferred onto nitrocellulose membranes for Western blotting. Antibodies were used to detect phospho-proteins and native proteins in lysates from control and treated cells
# To determine whether inhibition of PDE4 activity had similar effects on endogenous phospho-HSP20 levels in heart cells, similar experiments were undertaken using neonatal cardiomyocytes (FIG. 2).
row,Molecule,HSP20 phosphorylation after PKA inhibitor pre-treatment
1,CCCCCCOC(=O)[C@]1(O)C[C@@H]2O[C@@]1(C)n1c3ccccc3c3c4c(c5c6ccccc6n2c5c31)C(=O)NC4 [KT5720],markedly attenuated HSP20 phosphorylation
2,"O=S(=O)(NCCNC/C=C/c1ccc(Br)cc1)c1cccc2cnccc12 [Peptide H89, H89]",markedly attenuated HSP20 phosphorylation

# Target: T1, His-HSP20 (purified recombinant …)
# Assay: SPOT peptide array overlaid with purified His-Hsp20
# Conditions: not given
# Description: A variety of peptides were generated and SPOT-synthesised onto slides which were then overlaid with 10 μg/ml of purified His-Hsp20. Interaction with peptides and Hsp20 was evaluated by probing slides with anti-His or Hsp20 antibodies and analysed using enhanced chemi-luminescence techniques, Negative controls used anti-His antibody only with no overlay of His-Hsp20 protein (data not shown).
row,Molecule,binding result
1,Ac-GFKLL-NH2 (On the array SPOT-synthesised on a slide; also called peptide No 11) [Ac-GFKLL-NH2],binds
2,Ac-GFALL-NH2 (Negative control; On the array SPOT-synthesised on a slide; also called peptide No 16) [Ac-GFALL-NH2],no binding (tested: 10 ug/ml His-Hsp20 overlay)
3,Ac-GFRLL-NH2 (On the array SPOT-synthesised on a slide; also called peptide No 12) [Ac-GFRLL-NH2],binds
4,Ac-RFKLL-NH2 (On the array SPOT-synthesised on a slide; also called peptide No 14) [Ac-RFKLL-NH2],binds
5,Ac-KFKLL-NH2 (On the array SPOT-synthesised on a slide; also called peptide No 13) [Ac-KFKLL-NH2],binds
6,Ac-FKLLQ-NH2 (On the array SPOT-synthesised on a slide; also called peptide No 9) [Ac-FKLLQ-NH2],binds
7,Ac-FQNLTK-NH2 (On the array SPOT-synthesised on a slide; also called peptide No 6) [Ac-FQNLTK-NH2],binds
8,Ac-FQNLTA-NH2 (Negative control; On the array SPOT-synthesised on a slide; also called peptide No 4) [Ac-FQNLTA-NH2],no binding (tested: 10 ug/ml His-Hsp20 overlay)
9,Ac-FQNLTR-NH2 (On the array SPOT-synthesised on a slide; also called peptide No 5) [Ac-FQNLTR-NH2],binds
10,Ac-YQNLTK-NH2 (On the array the peptide was SPOT-synthesised on a slide; the soluble form Ac-...-NH2 was made 'to resemble SPOT synthesised peptides'; also called peptide No 3) [Ac-YQNLTK-NH2],binds

# System: Phospho-Ser16 HSP20 in HEKB2 cells
# Assay: Ser16 phosphorylation of HSP20 in HEKB2 cells overexpressing HSP20 (Western blot)
# Type: cell-based
# Conditions: HEKB2 cells, stimulated with isoproterenol alone; data not shown
# Description: FIG. 1. The phosphorylation of HSP20 at Ser16 is modulated by PDE4 activity in HEKB2 cells. A, HEKB2 cells overexpressing HSP20 or HSP20 ser16-Ala mutant were treated with isoprenaline for indicated times. Cellular lysates were blotted for HSP20 and Phospho-Ser16 HSP20. B, HEKB2 cells overexpressing HSP20 were treated with isoprenaline for indicated times, Cellular lysates were blotted for HSP20 and Phospho-Ser16 HSP20. C, HEKB2 cells overexpressing HSP20 were treated with isoprenaline for indicated times following pre-treatment with the PDE4-specific inhibitor, rolipram. Cellular lysates were blotted for HSP20 and Phospho-Ser16 HSP20. D, Quantifications of data from FIGS. 1B and 1C (n=4). * Denotes significance at a level p<0.05 E, Lysate from untransfected HEKB2 cells was blotted for HSP20 and Phospho-Ser16 HSP20.
# as §1
# In contrast to this, when we transfected these cells with a phospho-null mutant form, Ser16Ala-Hsp20, then no such change was observed (FIG. 1A). In order to evaluate whether PDE4 activity played a role in regulating this phosphorylation process in Hsp20-transfected HEKB2 cells, cells that had either been pre-treated or not with the PDE4 selective inhibitor rolipram were subsequently challenged with isoprenaline (1 μM) (FIGS. 1B and C). […] Endogenous levels of phospho-HSP20 or HSP20 were not detectable in HEKB2 cells (FIG. 1E).
row,Molecule,HSP20 phosphorylation after PKA inhibitor pre-treatment
1,CCCCCCOC(=O)[C@]1(O)C[C@@H]2O[C@@]1(C)n1c3ccccc3c3c4c(c5c6ccccc6n2c5c31)C(=O)NC4 [KT5720],markedly attenuated HSP20 phosphorylation
2,"O=S(=O)(NCCNC/C=C/c1ccc(Br)cc1)c1cccc2cnccc12 [Peptide H89, H89]",markedly attenuated HSP20 phosphorylation
